Data: publication PMC2945256

Target: Elongation Factor 1 alpha (EF1α), endogenous in rat liver lysosomes (rat (endogenous in rat liver)) (UniProt P62630)
Assay: co-IP

UniProt P62630, sequence (P62630 whole entry): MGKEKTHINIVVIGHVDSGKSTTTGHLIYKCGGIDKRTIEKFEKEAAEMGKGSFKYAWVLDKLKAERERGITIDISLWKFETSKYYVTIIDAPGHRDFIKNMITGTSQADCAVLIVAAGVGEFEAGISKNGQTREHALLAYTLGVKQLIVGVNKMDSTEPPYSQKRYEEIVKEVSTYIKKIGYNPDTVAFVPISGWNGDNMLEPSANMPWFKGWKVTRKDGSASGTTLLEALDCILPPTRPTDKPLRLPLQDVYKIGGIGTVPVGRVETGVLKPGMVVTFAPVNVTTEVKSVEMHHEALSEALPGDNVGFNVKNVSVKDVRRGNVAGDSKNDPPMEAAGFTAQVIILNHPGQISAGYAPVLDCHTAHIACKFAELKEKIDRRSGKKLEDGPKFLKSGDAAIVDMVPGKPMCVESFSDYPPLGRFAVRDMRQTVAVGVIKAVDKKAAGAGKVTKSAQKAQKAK

- decrease of GFAP co-immunoprecipitated with EF1α upon addition of GTP: 47.2%
Substance: glial fibrillary acidic protein (GFAP), endogenous in rat liver lysosomes (from UniProt P47819 1-430) (natural protein)
